Experiment in all cases: cell-based or functional assay
In assay [1] the target is HIV-1 CMU02 envelope glycoprotein (Env) on pseudovirus (HIV-1).
Assay [2] addresses HIV-1 Env of isolate MGRM-C-028 (pseudovirus) (HIV-1 isolate MGRM-C-028, subtype C).
For assay [3], the target named is HIV-1 MGRM-Chronic-B-020 Env (pseudovirus) (HIV-1).
Assay [4] has as its target HIV-1 93IN905 Env (pseudovirus) (HIV-1).
Assay [5] addresses HIV-1 Env of isolate 98IN022 (pseudovirus) (HIV-1 isolate 98IN022, subtype C).
For assay [6], the target named is HIV-1 MGRM-Chronic-B-018 Env (pseudovirus) (HIV-1).
The target in assay [7] is HIV-1 Env of isolate MG RM-D-008 (subtype D) (HIV-1).
Assay [8] concerns the target HIV-1 Env of isolate MG RM-D-024 (subtype D) (HIV-1).
The target of assay [9] is HIV-1 PVO.4 Env (pseudovirus) (HIV-1).
The target in assay [10] is HIV-1 Env of isolate MGRM-C-007 (pseudovirus) (HIV-1 isolate MGRM-C-007, subtype C).
In assay [11] the target is HIV-1 Env of isolate MG RM-D-001 (subtype D) (HIV-1).
The target of assay [12] is HIV-1 Env of isolate MG RM-D-026 (subtype D) (HIV-1).
Assay [13] concerns the target HIV-1 93IN905 envelope glycoprotein (Env) on pseudovirus (HIV-1).
Assay [14] deals with HIV-1 JR-CSF Env V127A (HIV-1 (isolate JR-CSF)) (UniProt P20871).
For assay [15], the target named is HIV-1 JR-CSF Env D474A (HIV-1 (isolate JR-CSF)) (UniProt P20871).
The target in assay [16] is HIV-1 Env of isolate MGRM-AE-006 (CRF01_AE), on pseudovirus (HIV-1).
Assay [17] has as its target HIV-1 Env of isolate MGRM-C-022 (HIV-1).
Assay [18] addresses HIV-1 Env of isolate MGRM-C-024 (HIV-1).
In assay [19] the target is HIV-1 Env of isolate APV-17 (pseudovirus) (HIV-1 isolate APV-17, subtype B).
The target of assay [20] is HIV-1 Env of isolate MGRM-F1-016 (subtype F), on pseudovirus (HIV-1).
The target in assay [21] is HIV-1 Env of isolate MGRM-F1-023 (subtype F), on pseudovirus (HIV-1).
In assay [22] the target is HIV-1 Env of isolate 93MW959 (HIV-1).
For assay [23], the target named is HIV-1 Env of isolate JRCSF (HIV-1) (UniProt P20871).
For assay [24], the target named is HIV-1 Env of isolate 92UG114 (HIV-1).
Assay [25] has as its target HIV-1 Env of isolate MGRM-Chronic-B-008 (HIV-1).
In assay [26] the target is HIV-1 Env of isolate 93TH305 (pseudovirus) (HIV-1 isolate 93TH305, subtype B).
In assay [27] the target is HIV-1 Env of isolate 93WR029 (HIV-1).
Assay [28] concerns the target HIV-1 Env of isolate MGRM-D-026 (subtype D), on pseudovirus (HIV-1).
The target in assay [29] is HIV-1 Env of isolate MGRM-D-021 (HIV-1).
Assay [30] addresses HIV-1 Env of isolate APV-13 (pseudovirus) (HIV-1 isolate APV-13, subtype B).
Assay [31] deals with HIV-1 Env of isolate MGRM-C-019 (HIV-1).

Sequence of 5345_I01 (PGT-137) (antibody) (VH): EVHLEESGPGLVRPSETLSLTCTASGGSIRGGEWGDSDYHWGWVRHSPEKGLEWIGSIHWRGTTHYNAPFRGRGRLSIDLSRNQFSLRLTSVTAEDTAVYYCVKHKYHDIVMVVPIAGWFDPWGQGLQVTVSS
Sequence of 5345_I01 (PGT-137) (antibody) (VL): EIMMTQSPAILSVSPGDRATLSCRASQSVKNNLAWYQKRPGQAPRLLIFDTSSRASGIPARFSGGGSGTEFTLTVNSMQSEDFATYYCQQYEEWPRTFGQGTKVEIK
Sequence of 5329_C19 (PGT-136) (antibody) (VH): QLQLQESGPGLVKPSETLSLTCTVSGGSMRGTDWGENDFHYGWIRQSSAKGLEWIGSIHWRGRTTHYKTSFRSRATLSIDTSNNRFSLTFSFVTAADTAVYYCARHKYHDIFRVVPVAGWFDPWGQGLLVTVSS
Sequence of 5329_C19 (PGT-136) (antibody) (VL): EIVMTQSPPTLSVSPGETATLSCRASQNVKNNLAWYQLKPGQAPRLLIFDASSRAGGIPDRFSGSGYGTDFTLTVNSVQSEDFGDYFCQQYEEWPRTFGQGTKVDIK

4838_L06 (PGT-121) (antibody): the IC50 (ug/ml), neutralizing activity in assay [1] was above 10 µg/mL. Moreover, the IC50 (µg/mL) neutralization in [2] came to 0.472 µg/mL; in assay [5], 0.007 µg/mL; in assay [10], 0.196 µg/mL. For the same substance, the IC50, pseudovirus neutralization in [3] is 0.004 µg/mL; in assay [4], 0.005 µg/mL; in [6] it was above 50 µg/mL; in assay [9] it was 0.137 µg/mL. The neutralization IC80 in assay [4] worked out at 0.0302 µg/mL. In assay [4], the neutralization IC90 came to 0.0645 µg/mL. The IC50 (µg/mL), pseudovirus neutralization was above 50 µg/mL in assay [7], 0.038 µg/mL in [8], 0.615 µg/mL in [11] and above 50 µg/mL in assay [12].

For the substance 4858_P08 (PGT-123) (antibody), the IC50 (ug/ml), neutralizing activity is above 10 µg/mL in assay [1] and 0.0071 µg/mL in [13]. Moreover, the IC50, pseudovirus neutralization in assay [1] was above 10 µg/mL; in [13] it was 0.0071 µg/mL; in [3], 0.005 µg/mL; in assay [4], 0.004 µg/mL; in assay [6], above 50 µg/mL; in assay [9] it was 0.105 µg/mL. Further, the IC80, pseudovirus neutralization is above 10 µg/mL in assay [1] and 0.0281 µg/mL in assay [13]. Moreover, the values for the IC90 (pseudovirus neutralization) in [1] and in [13] were above 10 µg/mL and 0.0625 µg/mL, respectively. Also, the IC95, pseudovirus neutralization in [1] was above 10 µg/mL; in assay [13] it was 0.131 µg/mL. Moreover, the IC50 (µg/mL) neutralization in assay [2] was found to be 0.402 µg/mL; in assay [5] it was 0.011 µg/mL; in [10] it was 0.547 µg/mL. The results for the Fold IC50 increase relative to wild-type in [14] and in assay [15] were 1.2 fold and 1.1 fold, respectively. The IC50 (µg/mL), pseudovirus neutralization in [7] was above 50 µg/mL; in assay [8] it was 0.023 µg/mL; in assay [11] it was 0.147 µg/mL; in assay [12] it was above 50 µg/mL.

For 4877_D15 (PGT-122) (antibody), the values for the IC50 (ug/ml), neutralizing activity in [1] and in [13] were above 10 µg/mL and 0.0138 µg/mL, respectively. The IC50 (µg/mL) neutralization was 2.22 µg/mL in assay [2], 0.032 µg/mL in assay [5] and 3.35 µg/mL in [10]. Moreover, the IC50, pseudovirus neutralization in assay [3] was 0.005 µg/mL; in assay [4], 0.013 µg/mL; in [6] it was above 50 µg/mL; in assay [9] it was 0.689 µg/mL. Also, the IC50 (µg/mL), pseudovirus neutralization in assay [7] is above 50 µg/mL; in assay [8], 0.185 µg/mL; in assay [11], 1.13 µg/mL; in [12], above 50 µg/mL.

As to 5123_A06 (PGT-125) (antibody), the figures for the IC50 (ug/ml), neutralizing activity in [1] and in assay [13] were above 10 µg/mL and 0.0137 µg/mL, respectively. The neutralization IC50 is above 10 µg/mL in [1] and 0.0137 µg/mL in assay [13]. Moreover, the figures for the neutralization IC80 in assay [1] and in [13] were above 10 µg/mL and 0.0494 µg/mL, respectively. In addition, the neutralization IC90 in assay [1] was above 10 µg/mL; in assay [13], 0.106 µg/mL. In addition, the neutralization IC95 was above 10 µg/mL in assay [1] and 0.216 µg/mL in assay [13]. In addition, the IC50 (µg/mL) neutralization in assay [2] was 14 µg/mL; in assay [5], 22.1 µg/mL; in [10], above 50 µg/mL. Besides, the IC50, pseudovirus neutralization in [3] is 0.087 µg/mL; in [4] it was 0.009 µg/mL; in assay [6] it was above 50 µg/mL; in [9] it was 0.042 µg/mL. For the same substance, the results for the Fold IC50 increase relative to wild-type in [14] and in assay [15] were 0.9 fold and 1.4 fold, respectively. For the same substance, the IC50 (µg/mL), pseudovirus neutralization in assay [7] is above 50 µg/mL; in [8], above 50 µg/mL; in assay [11], 2.84 µg/mL; in assay [12] it was above 50 µg/mL.

A word on the IC50: it is the midpoint of a concentration-inhibition curve. The term IC80 denotes the concentration needed for an effect of 80%. The IC90 is the concentration needed for an effect of 90%. High values mean weaker potency, low ones greater potency. The term IC95 denotes the concentration needed for an effect of 95%. Low values mean an effect from little substance, high ones a need for much substance. As to 5141_B17 (PGT-126) (antibody), the IC50 (ug/ml), neutralizing activity was above 10 µg/mL in assay [1] and 0.0194 µg/mL in [13]. Further, the IC50 (µg/mL) neutralization in assay [2] was found to be 0.196 µg/mL; in [5] it was 0.279 µg/mL; in assay [10], 25.3 µg/mL. Besides, the IC50, pseudovirus neutralization amounted to 0.021 µg/mL in assay [3], 0.015 µg/mL in assay [4], 0.052 µg/mL in [6] and 0.017 µg/mL in assay [9]. Also, the IC50 in assay [4] was 0.0194 µg/mL. This substance showed an IC80 in [4] of 0.0676 µg/mL. Moreover, the 90% effect concentration (IC90) in assay [4] turned out to be 0.14 µg/mL. The IC95 in assay [4] came to 0.275 µg/mL. For the same substance, the figures for the Fold IC50 increase relative to wild-type in assay [14] and in [15] were 1.3 fold and 3.3 fold, respectively. In addition, the IC50 (µg/mL), pseudovirus neutralization was 43.1 µg/mL in assay [7], 0.376 µg/mL in assay [8], 0.084 µg/mL in assay [11] and above 50 µg/mL in assay [12].

Take 5145_B14 (PGT-127) (antibody): the IC50 (µg/mL) neutralization in [2] is 7.57 µg/mL; in assay [5] it was 19.2 µg/mL; in [10], above 50 µg/mL. The IC50, pseudovirus neutralization is 0.05 µg/mL in assay [3], 0.024 µg/mL in assay [4], 1.9 µg/mL in [6] and 0.164 µg/mL in assay [9]. Further, the Fold IC50 increase relative to wild-type in [14] was 2.5 fold; in [15], 1.5 fold. Also, the IC50 (µg/mL), pseudovirus neutralization in assay [7] is above 50 µg/mL; in [8] it was 1.95 µg/mL; in [11], 2.23 µg/mL; in assay [12], above 50 µg/mL.

In [16], 5329_C19 (PGT-136) (antibody) showed an IC50, single-round pseudovirus neutralization above 50 µg/mL. Moreover, the IC50 in [17], in assay [18], in [22], in [23], in [24] and in [25] was above 50 µg/mL in each case. Also, the IC50 in [29] was above 50 µg/mL; in assay [31] it was 20.1 µg/mL. The IC50 (µg/mL) neutralization was above 50 µg/mL in [19], 20.2 µg/mL in assay [26] and above 50 µg/mL in assay [30]. Also, the IC50, pseudovirus neutralization in assay [20], in assay [21] and in assay [28] was above 50 µg/mL in each case. Moreover, the neutralization IC50 in assay [27] is above 50 µg/mL.

5345_I01 (PGT-137) (antibody) returned an IC50, single-round pseudovirus neutralization in [16] above 50 µg/mL. For the same substance, the IC50 in assay [17], in assay [18], in assay [22], in assay [23], in [24] and in assay [25] was above 50 µg/mL throughout. Moreover, the IC50 in assay [29] and in assay [31] was above 50 µg/mL each time. Also, the IC50 (µg/mL) neutralization in assay [19], in assay [26] and in [30] was above 50 µg/mL each time. For the same substance, the IC50, pseudovirus neutralization in assay [20], in assay [21] and in [28] was above 50 µg/mL each time. The substance further displayed a neutralization IC50 in assay [27] above 50 µg/mL.

Values taken from patent publication US20200024330A1.
